Test results reported in publication PMC9645730, “Cryo-EM structure of the human sodium-chloride cotransporter NCC” (Science Advances, 2022).

Target: the molecule itself
Assay: cryo-EM structure; single-particle analysis of purified NCC at 9 mg/ml in 25 mM tris (pH 8.0), 150 mM NaCl, 0.02% GDN; TMD map with C2 symmetry, overall map with C1 symmetry

B1: human sodium-chloride cotransporter NCC (natural protein, UniProt P55017-1 1-1021, looked up)
chain: MAELPTTETPGDATLCSGRFTISTLLSSDEPSPPAAYDSSHPSHLTHSSTFCMRTFGYNTIDVVPTYEHYANSTQPGEPRKVRPTLADLHSFLKEGRHLHALAFDSRPSHEMTDGLVEGEAGTSSEKNPEEPVRFGWVKGVMIRCMLNIWGVILYLRLPWITAQAGIVLTWIIILLSVTVTSITGLSISAISTNGKVKSGGTYFLISRSLGPELGGSIGLIFAFANAVGVAMHTVGFAETVRDLLQEYGAPIVDPINDIRIIGVVSVTVLLAISLAGMEWESKAQVLFFLVIMVSFANYLVGTLIPPSEDKASKGFFSYRADIFVQNLVPDWRGPDGTFFGMFSIFFPSATGILAGANISGDLKDPAIAIPKGTLMAIFWTTISYLAISATIGSCVVRDASGVLNDTVTPGWGACEGLACSYGWNFTECTQQHSCHYGLINYYQTMSMVSGFAPLITAGIFGATLSSALACLVSAAKVFQCLCEDQLYPLIGFFGKGYGKNKEPVRGYLLAYAIAVAFIIIAELNTIAPIISNFFLCSYALINFSCFHASITNSPGWRPSFQYYNKWAALFGAIISVVIMFLLTWWAALIAIGVVLFLLLYVIYKKPEVNWGSSVQAGSYNLALSYSVGLNEVEDHIKNYRPQCLVLTGPPNFRPALVDFVGTFTRNLSLMICGHVLIGPHKQRMPELQLIANGHTKWLNKRKIKAFYSDVIAEDLRRGVQILMQAAGLGRMKPNILVVGFKKNWQSAHPATVEDYIGILHDAFDFNYGVCVMRMREGLNVSKMMQAHINPVFDPAEDGKEASARVDPKALVKEEQATTIFQSEQGKKTIDIYWLFDDGGLTLLIPYLLGRKRRWSKCKIRVFVGGQINRMDQERKAIISLLSKFRLGFHEVHILPDINQNPRAEHTKRFEDMIAPFRLNDGFKDEATVNEMRRDCPWKISDEEITKNRVKSLRQVRLNEIVLDYSRDAALIVITLPIGRKGKCPSSLYMAWLETLSQDLRPPVILIRGNQENVLTFYCQ
modifications: N-acetylglucosamine on Asn406 and Asn426; disulfide bonds Cys416-Cys421 and Cys430-Cys436
notes: human NCC (SLC12A3), cloned from HEK293 cDNA; an isoform that, compared with UniProt P55017-1, carries the naturally occurring A264G and lacks Gln95; residue numbers count on P55017-1; The atomic model holds residues 137-605 (TMD) and 616-1020 (CTD, docked as a rigid body from a SWISS-MODEL prediction); No cleavage of the tags is told; also called Na+-Cl- cotransporter; SLC12A3; not shown: FLAG, …
- stoichiometry N: 2
